The values below come from PMC5827449, “Structural analysis of group II chitinase (ChtII) catalysis completes the puzzle of chitin hydrolysis in insects” (The Journal of Biological Chemistry, 2018).

Substrate in data set [1]: CC(=O)N[C@H]1[C@H](Oc2ccc3c(C)cc(=O)oc3c2)O[C@H](CO)[C@@H](O[C@@H]2O[C@H](CO)[C@@H](O)[C@H](O)[C@H]2NC(C)=O)[C@@H]1O
Put plainly: fluorescence of released 4-methylumbelliferone. In kind it is biochemical, Ostrinia furnacalis. To be noted: pH 6.0, 20 mM sodium phosphate, 303 K, 20 min, 30.0 °C. The source says: fluorescence of released 4-methylumbelliferone on OfChtII-C2

Substrate in data set [2]: CC(=O)N[C@H]1[C@H](Oc2ccc3c(C)cc(=O)oc3c2)O[C@H](CO)[C@@H](O[C@@H]2O[C@H](CO)[C@@H](O)[C@H](O)[C@H]2NC(C)=O)[C@@H]1O
Put plainly: fluorescence of released 4-methylumbelliferone. To be noted: pH 6.0, 20 mM sodium phosphate, 303 K, 20 min, 30.0 °C. The class given is biochemical, Ostrinia furnacalis. The source says: fluorescence of released 4-methylumbelliferone on OfChi-h
The source holds these as a separate data set.

The Km is the concentration of substrate that gives half-maximal velocity. In general, kcat refers to the number of substrate molecules converted per active site and unit of time at saturation. Broadly, the kcat/Km is the second-order rate constant that governs catalysis at low substrate concentration.

B1: OfChtII-C2 (Ostrinia furnacalis) (protein)
chain: ERFKVVCYYTNWAWYRPDNGKYTPGDINPELCTHIIYAFAVLDKEELVIKSHDIWLDVENKFYEKVTALKSHGVKVLLGLGGWDDSAGDKYSRLVNNVSARRKFVVHAVDFLEQYGFDGLDLDWEYPKCWQVECEKGPDSDKQGFADLVKELRKAFNRRGMLLSAAVSASKRVIDYAYNVPALSMNLDWISLMTYDYHGQWDKKTGHVAPMYVHDKDTDNTFNVNFTVNYWINKGADRKKLVVGVPFYGQSFSVVEGAGTGLGAPTYAGGEAGDETRARGFLSFYEICERVKVKGWKVHRDPGGRIGPYATHDDQWVSFDDDFMARHKAEYVRAMELGGSMAWSLDLDDFTGKYCGCGKAPLLTTINHVLRGKEAPPPCIL
notes: single GH18 catalytic domain C2 (barrel 2059-2301 and 2377-2426); His-tag purified from Pichia pastoris GS115
As to B1, in data set [1], the Km is 11.93 ± 0.50 µM, the kcat turned out to be 12.22 ± 0.15 min⁻¹ and the kcat/Km was 17000 M⁻¹ s⁻¹.

B2: OfChi-h (Ostrinia furnacalis) (protein)
chain: APPGKPSLGWGERTFAIVEVNQAATAYNQLVTKRDSADVSVTWNVWSGDPADKARVLLNDKEFWSGTGGAAGSASFKVKKGGRYQMVVELCNADGCSQSDATEIIVADTDGSHLPPLDYNMGEKNKPFKQTSGKVVGAYFVEWGVYPRKFPVDRVPIPNLTHLLYGFIPICGGDGINDSLKEIEGSFQALQRSCSGREDFKVSIHDPWAALQKPQKGLSSWNEPYKGNFGQLMMLKQAKPDLKILPSIGGWTLADPFFFFTDETKRRRFVASVKDFLQTWKFFDGVDIDWEFPGGKGANPNLGSPKDGEIYVLLMKELREMLNELSAETGRKYELTSAISAGWDKIQVVDYSAAQKYMDHIFFMSYDFKGAWSNDTLGHQASLYAPDWNEKETYTTDFGVQFLLAQGVSPKKIVVGVAMYGRGWTGVHGYKDNNPFTGNATGPVKGTWQDGVVDYREIATEIAQGKWEYHYDKVAQAPYVFRPATGDLITYDDARSTIEKGKYVRANKLGGLFAWEIDADNGDILNAMNMGLGNSA
On to B2, for which, in data set [2], the Km came out at 7.32 ± 0.35 µM, the kcat amounted to 188.27 ± 5.31 min⁻¹ and the kcat/Km came to 429000 M⁻¹ s⁻¹.
